Source: article doi:10.1101/2025.09.16.676304, “FoxP3 forms a head-to-head dimer in vivo and stabilizes its multimerization on adjacent microsatellites”

T1: FoxP3 RBR-FKH;NFAT1 (Mus musculus;Mus musculus, UniProt Q99JB6;Q60591 284-423;394-680, |)
T1 sequence 1: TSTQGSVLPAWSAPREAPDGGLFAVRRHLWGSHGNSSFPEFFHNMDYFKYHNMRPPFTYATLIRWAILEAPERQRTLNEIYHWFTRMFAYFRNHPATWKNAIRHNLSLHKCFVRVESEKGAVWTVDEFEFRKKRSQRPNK
T1 sequence 2: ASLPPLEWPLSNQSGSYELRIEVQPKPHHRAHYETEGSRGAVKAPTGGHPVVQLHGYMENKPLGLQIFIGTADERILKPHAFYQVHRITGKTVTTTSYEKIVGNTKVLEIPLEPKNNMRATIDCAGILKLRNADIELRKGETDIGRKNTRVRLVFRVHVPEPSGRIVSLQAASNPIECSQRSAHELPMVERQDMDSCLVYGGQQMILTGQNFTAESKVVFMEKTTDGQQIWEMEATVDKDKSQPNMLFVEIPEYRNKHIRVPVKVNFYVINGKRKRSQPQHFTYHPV

T2: FoxP1 RBR-FKH;NFAT1 (Mus musculus;Mus musculus, UniProt P58462;Q60591 427-579;394-680, |)
T2 sequence 1: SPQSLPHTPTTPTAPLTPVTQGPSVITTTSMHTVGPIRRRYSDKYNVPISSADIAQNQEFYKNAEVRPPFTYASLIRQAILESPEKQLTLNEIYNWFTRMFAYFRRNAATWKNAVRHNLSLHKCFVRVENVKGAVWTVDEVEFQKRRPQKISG
T2 sequence 2: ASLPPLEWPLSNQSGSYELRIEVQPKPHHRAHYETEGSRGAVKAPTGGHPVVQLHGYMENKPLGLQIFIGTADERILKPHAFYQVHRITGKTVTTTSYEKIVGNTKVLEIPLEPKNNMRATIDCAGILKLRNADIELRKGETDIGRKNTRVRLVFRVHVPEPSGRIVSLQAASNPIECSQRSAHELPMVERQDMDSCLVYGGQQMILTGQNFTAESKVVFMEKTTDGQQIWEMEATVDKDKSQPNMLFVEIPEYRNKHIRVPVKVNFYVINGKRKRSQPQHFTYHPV


What was measured:
Conditions in all cases: protein: recombinant;recombinant; tags: His6-NusA removed by HRV3C;His6-NusA removed by HRV3C; copies: 1;1
FoxP3 RBR-FKH;NFAT1 [1] = biological target: T1, FoxP3 RBR-FKH;NFAT1; experiment: EMSA; NFAT 0.4 uM; FoxP3 dimer; EMSA: 20 mM HEPES pH 7.5, 150 mM NaCl, 1.5 mM MgCl2, 2 mM DTT, 4 C, 0.2 uM DNA; pull-down: 20 mM Tris-HCl pH 7.5, 100 mM NaCl, 1.5 mM MgCl2, RT, 0.4 uM protein, 0.1 uM DNA
FoxP1 RBR-FKH;NFAT1 = biological target: T2, FoxP1 RBR-FKH;NFAT1; experiment: EMSA; NFAT 0.4 uM; FoxP1 monomer; EMSA: 20 mM HEPES pH 7.5, 150 mM NaCl, 1.5 mM MgCl2, 2 mM DTT, 4 C, 0.2 uM DNA; pull-down: 20 mM Tris-HCl pH 7.5, 100 mM NaCl, 1.5 mM MgCl2, RT, 0.4 uM protein, 0.1 uM DNA
FoxP3 RBR-FKH;NFAT1 [2] = biological target: T1, FoxP3 RBR-FKH;NFAT1; experiment: EMSA; NFAT 0.4 uM; FoxP3 monomer; EMSA: 20 mM HEPES pH 7.5, 150 mM NaCl, 1.5 mM MgCl2, 2 mM DTT, 4 C, 0.2 uM DNA; pull-down: 20 mM Tris-HCl pH 7.5, 100 mM NaCl, 1.5 mM MgCl2, RT, 0.4 uM protein, 0.1 uM DNA

| Binder | binding result (FoxP3 RBR-FKH;NFAT1 [1]) | binding result (FoxP1 RBR-FKH;NFAT1) | binding result (FoxP3 RBR-FKH;NFAT1 [2]) |
| --- | --- | --- | --- |
| IR-FKHM (DNA1) (dsDNA) DNA 1: TAGGAAAATTTGTTTACTCGAGTAAACATC DNA 2: GATGTTTACTCGAGTAAACAAATTTTCCTA | binds | binds | – |
| sFKHM (DNA2) (dsDNA) DNA 1: TAGGAAAATTTGCCGCGTCGAGTAAACATC DNA 2: GATGTTTACTCGACGCGGCAAATTTTCCTA | – | binds | binds |
